Measured values published in paper PMC3928423, “RRP6 from Trypanosoma brucei: Crystal Structure of the Catalytic Domain, Association with EAP3 and Activity towards Structured and Non-Structured RNA Substrates” (PLoS ONE, 2014).
Positions count from the first letter of the chain named.

Key:
[1] = target: TbEAP3ΔC2 (residues 1 to 144) (Trypanosoma brucei); experiment: SEC-MALS; HPLC (Shimadzu), Shodex KW-804 or KW-803 column, proteins at 5 mg/mL in 50 mM Tris-HCl pH 7.5, 500 mM NaCl, 5% glycerol, 0.5 mL/min; miniDAWN TREOS
[2] = target: TbRRP6ΔC (residues 20 to 540) (Trypanosoma brucei) (UniProt Q95Z10); experiment: as above
[3] = target: TbEAP3ΔC2 (residues 1 to 144) (Trypanosoma brucei); experiment: SEC-MALS; under reducing condition (10 mM DTT); data not shown
TbEAP3ΔC2 = target: T1, TbEAP3ΔC2 (Trypanosoma brucei, UniProt Q582G1 1-144); experiment: EMSA; 5 mM MnCl2; protein 5-50 uM; 10 mM Tris-HCl pH 8.0, 10 mM DTT, 25 mM KCl, 5 mM MnCl2; 50 nM oligonucleotide; 5, 10 or 50 uM protein; 30 min on ice; native 6% gel, 0.25x TBE, 0.5% glycerol; details: protein: recombinant, tags: pET21a, chain copies: 2
T1 sequence: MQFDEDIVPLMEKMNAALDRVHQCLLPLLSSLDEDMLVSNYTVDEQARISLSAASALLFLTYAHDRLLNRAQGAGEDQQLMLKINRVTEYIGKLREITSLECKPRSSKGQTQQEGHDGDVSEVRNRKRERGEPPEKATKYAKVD

TbEAP3ΔC1 = target: T2, TbEAP3ΔC1 (Trypanosoma brucei, UniProt Q582G1 1-183); experiment: as above; details: protein: recombinant, tags: pET21a, chain copies: 2
T2 sequence: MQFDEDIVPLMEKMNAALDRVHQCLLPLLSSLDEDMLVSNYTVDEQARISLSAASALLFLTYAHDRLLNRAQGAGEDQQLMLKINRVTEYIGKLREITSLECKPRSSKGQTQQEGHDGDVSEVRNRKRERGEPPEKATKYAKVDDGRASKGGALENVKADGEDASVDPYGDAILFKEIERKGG

[4] = target: the molecule itself; experiment: SEC-MALS; HPLC (Shimadzu), Shodex KW-804 or KW-803 column, proteins at 5 mg/mL in 50 mM Tris-HCl pH 7.5, 500 mM NaCl, 5% glycerol, 0.5 mL/min; miniDAWN TREOS
[5] = label: 5'-FAM on strand 1, blunt
[6] = label: 5'-FAM, hairpin with 20 nt 3' extension

Molecule: TbEAP3ΔC2 (residues 1 to 144) (domain or fragment)
- stoichiometry N [1]: 2
- stoichiometry N [2]: 1
- stoichiometry N [3]: 2

B1: dsRNA (dsRNA)
RNA 1: CCAAAAAAAAAAAAACCACUCACUCACUCA
RNA 2: UGAGUGAGUGAGUGGUUUUUUUUUUUUUGG
- binding result (TbEAP3ΔC2; [5]): no binding
- binding result (TbEAP3ΔC1; [5]): no binding

B2: TbEAP3ΔC1 (residues 1 to 183) (domain or fragment, Trypanosoma brucei, UniProt Q582G1 1-183, looked up)
chain: T2 sequence
notes: TbEAP3, Trypanosoma brucei, gene Tb927.7.5460, residues 1-183 (C-terminal truncation); one copy in the heterodimer with TbRRP6ΔC; source: E. coli C3022 (pET21a), purified (His-Trap, Superdex 200, mono Q); also co-expressed with TbRRP6ΔC and co-purified
- stoichiometry N [2]: 1
- stoichiometry N [4]: 2

B3: ssDNA (ssDNA)
DNA: B1 RNA 1 with U20T, U24T, U28T
- binding result (TbEAP3ΔC2; label: 5'-FAM, single strand): no binding
- binding result (TbEAP3ΔC1; label: 5'-FAM, single strand): no binding

B4: dsDNA (dsDNA)
DNA 1: B1 RNA 1 with U20T, U24T, U28T
DNA 2: TGAGTGAGTGAGTGGTTTTTTTTTTTTTGG
- binding result (TbEAP3ΔC2; [5]): no binding
- binding result (TbEAP3ΔC1; [5]): no binding

B5: ssRNA (ssRNA)
RNA: B1 RNA 1
- binding result (TbEAP3ΔC2; label: 5'-FAM, single strand): no binding
- binding result (TbEAP3ΔC1; label: 5'-FAM, single strand): no binding

B6: GNRA20 (structured_RNA)
RNA: AUUUAUUUAGGGCGGGCGCAAGCCCGCCCUAUUUAUUAUUUAUUAUUUA
- binding result (TbEAP3ΔC2; [6]): no binding
- binding result (TbEAP3ΔC1; [6]): no binding
